Source: patent US20160129078A1, “Rhomboid Proteins and Uses Thereof” (Queen's University at Kingston, priority 2014, published 2016)

Assays:
yeast = assay: Sensitization of yeast to fungicidal agents AmB and Nys; assay type: cell-based, Saccharomyces cerevisiae; details: for yeast cell survival, variant added alone: 10 ug protein alone in elution buffer, no fungicide; for yeast survival, fungicidal agents together with variant protein: 10 ug protein with sub-lethal AmB and/or Nys
Experimental: Experiments were conducted to assess the ability of the Arabidopsis At1g74130 proteins or variants to sensitize yeast to the antifungal agents Amphotericin B (AmB) and Nystatin (Nys). Overall, these assays were conducted in a manner similar to that designed for bacteria (Example 9). In addition to the components mixed with the added proteins or variants, the antifungal AmB was also utilized as part of the delivery system. The AmB drug contains small quantities of the detergent deoxycholate, which may also assist in the delivery of proteins into the cell, as well as function as a pore forming agent itself. […] The effective co-delivery sub-lethal concentrations of the two antifungal agents or protein had little or no effect when provided individually. FIGS. 17 and 18 show results of the yeast sensitivity assays for AmB and Nys. […] In FIG. 17, the “Yeast Control” bars represent yeast cells given mock treatments with culture media (YPD) alone, YPD plus 1% AmB, YPD plus 0.5% Nys, and YPD plus 1% AmB and 0.5% Nys, respectively. The “BSA Control” bars represent another set of mock treatments with yeast cells. This set utilized the same set-up as the Yeast Control set but with added control bovine serum albumin proteins (BSA) (dissolved in the elution buffer, the same buffer used for the purification of the recombinant At1g74130 rhomboid proteins or variants). These assays represent another variation of negative controls for rhomboid protein. The “Elution Control” bars represent yeast cells mock treated using the same set-up as in the Yeast Control set but with added elution buffer alone. This variation of control assays was designed to assess for potential toxic impacts when combining elution buffer and the listed drugs, as well any effects originating from components of the elution buffer itself. The composition of the elution buffer is provided above in Example 5. With the exception of Nys, these treatments represent the first step and occur for 45 minutes before the second step when exposure to fungicides takes place. Within each set of bars, where applicable, the second 15-minute step treatment occurred with a sub-lethal dose of Nys. After a total of one hour, the treated yeast cells were plated on non-selective YPD agar plates. Plates were grown 2-3 days at 27-30° C. and assessed for surviving cell numbers (measuring cell death). Images were also taken to document cell and colony growth characteristics.
In the experimental assays, the sensitizing properties of At1g74130 or variants (sensitizing variants) were tested by adding 10 ug protein (At1g74130 or variants in elution buffer) to yeast cells (300-500 cells). To reiterate in all cases, the components were added to cultures and mixed for one hour, where Nys was added and incubated for the last 15 minutes of the treatment. Pre-treatment was designed to permit AmB and At1g74130 proteins to establish and work prior to adding Nys. After the one hour incubation, 500 cells were plated on non-selective YPD agar media and grown for 48 hours at 30′C.
The sub-lethal levels of fungicides to use in these assays were determined using dosage experiments. These assays were conducted on yeast cells without added rhomboid proteins or variants. The dosages of AmB tested ranged from 0 to 5% (v/v). […] Likewise, the Nys level was determined using a range of 0.5 to 2.5%. Yeast cells were treated for one hour with fungicides in a total volume of 400 μl YPD media before plating.
Since both the AmB buffer contained small quantities of detergent (deoxycholate being the main one), an experiment was done in which different amounts (1% and 10%) of deoxycholate were added to yeast cells to ascertain any effects. Adding deoxycholate had little effect on yeast.
This set of yeast assays was conducted in the same manner described above (Example 13) and employed the same controls and combinations. […]

bacteria = assay: Sensitization of bacteria to tetracycline by exogenous rhomboid protein; assay type: cell-based, Escherichia coli; details: tetracycline 15 ug/ml
Experimental: Experiments were conducted to assess the ability and the utility of At1g74130 protein variants to sensitize bacteria to another antibiotic, tetracycline. In bacteria, tolerance or resistance to tetracycline is facilitated by a mechanism different from the ampicillin resistance assayed in Example 9. Unlike the breakdown of ampicillin outside the bacterial cells by secreted ampicilliase, tetracycline resistance in bacteria is based largely on the continual and effective pumping of tetracycline out of the cell by proteinaceous membrane pumps. To assess the utility of the At1g74130 for sensitizing bacteria to tetracycline, these bacterial assays were conducted in the same manner described in Example 9. The same controls and combinations were used. The final treatment level of tetracycline used in place of the ampicillin treatment was 15 ug/ml.
Experiments were conducted to assess the ability and the utility of a human rhomboid type or variant to sensitize bacteria to tetracycline. These bacterial assays were conducted in the same manner described above for the other rhomboid variants and in Example 9. The same controls and combinations were used. The At1g74130 L was the control for UBAC2 in this set of assays. The previously observed behaviours and responses were not observed for UBAC2 in this setting with the antibiotic tetracycline (FIG. 16).

Pseudomonas aeruginosa = assay: Impairment of lipase secretion and growth on minimal media-olive oil plates; assay type: cell-based; details: for growth on minimal media-olive oil agar plates: 10 ug protein, with or without 5% DMSO, olive oil as only carbon source
Description: Experiments were thus conducted to assess the ability of At1g74130 proteins or variants to impair the protein secretion process of Pseudomonas aeruginosa, a gram-negative bacterium known to be pathogenic and producers of biofilms. Any impact on the protein secretion mechanism may alter pathogenicity, growth, survival, biofilm production, and sensitivity to antimicrobial drugs. The design of the Pseudomonas assays was similar to that used for bacteria in the above examples, results, and figures. Treated Pseudomonas cells were plated onto minimal media supplemented with olive oil as the only external carbon source. The minimal media-olive oil plates consisted of the following: 50 mM MOPS, pH 7.5; 40 mM K2HPO4; 25 mM NaH2PO4; 7.5 mM (NH4)2SO4; 0.4 mM MgSO4; 0.5% (v/v) olive oil; 40 ug/ml neutral red; 20 ul trace elements (Mn, Co, Zn, Cu, and Mo); and 1.5% agar. Pseudomonas cells need to express and secrete lipases in order to break down the olive oil and allow the acquisition of carbon from the media. Cells that are impaired with respect to protein secretion will not be able to break down the olive oil for acquisition and permit subsequent growth.
Control assays were conducted on cells without added At1g74130 or variants (sensitizer variants) to determine the delivery system to use. Control assays were also conducted to determine if the 5% (v/v) DMSO delivery system used for E. coli exerted any effect. Pseudomonas cells were mock treated with Luria Broth (LB) media or 5% (v/v) DMSO for 45-90 minutes prior to plating on minimal media supplemented with olive oil as the sole external carbon source. Total volumes of 200 μl were used in these assays. The plates were allowed to grow overnight to assess the level of growth or colony formation.
In the experimental assays, the utility of At1g74130 or variants in the Pseudomonas was tested by adding 10 ug protein (At1g74130 or variants) to cells (600-800 cells) incubated for 45 minutes at 37° C., shaken, and followed by another 45 minute period at 37° C. […]

B1: At1g74130 S: 6/7 S-form splice variant of Arabidopsis At1g74130 rhomboid protein (protein, listed as Arabidopsis thaliana)
chain: MHAIFCRRVAVGCSSPQLTKLVTKQASQSRHSLSHLLPFDLSSRFVPPYVVSRSARVHGFFAGKLGNTNLKLKFGNVMESRAGFFSSELPSHGFESGGFTGFQKRGWKSWINGANGVVFGLVIANAAVFTMWRVLGKDNMWMVKNFMLSRYSFMTGRIHTLITSGFSHVGATHIILNMMGLCYFGARIARSFGPRYLLKLYFAGALGGSVFFLSSHALSVISLKGQRVVPKDQLKVPIGKLGANGPVYAITLLDMLLYPKVTTYFGLMLRVPVFAVRESIA
yeast
  yeast cell survival, variant added alone: no effect
  yeast survival, fungicidal agents together with variant protein: dramatically reduced yeast survival
bacteria
  sensitization of bacteria to tetracycline: no activity
Pseudomonas aeruginosa
  growth on minimal media-olive oil agar plates: most potent impact

B2: At1g74130 M: 7/8 M-form splice variant of Arabidopsis At1g74130 rhomboid protein (protein, listed as Arabidopsis thaliana)
chain: MHAIFCRRVAVGCSSPQLTKLVTKQASQSRHSLSHLLPFDLSSRFVPPYVVSRSARVHGFFAGKLGNTNLKLKFGNVMESRAGFFSSELPSHGFESGGFTGFQKRGWKSWINGANGVVFGLVIANAAVFTMWRVLGKDNMWMVKNFMLSRYSFMTGRIHTLITSGFSHVGATHIILNMMGLCYFGARIARSFGPRYLLKLYFAGALGGSVFFLSSHALSVISLKGQRVVPKDQLKVPIGKLGANGPVYAITLLDMLLYPKVTTYFGLMLRVPVFAGIYSLGLNIIKMLEVCMMGKTTIP
yeast
  yeast cell survival, variant added alone: no effect
  yeast survival, fungicidal agents together with variant protein: dramatically reduced yeast survival
bacteria
  sensitization of bacteria to tetracycline: increased the sensitivity
Pseudomonas aeruginosa
  growth on minimal media-olive oil agar plates: reduced
Pseudomonas aeruginosa; assay with elution buffer and variant
  lipase secretion: moderate impairment of lipase secretion
